Assay [1] addresses FCGR1 (CD64) (UniProt P12314).
Assay [2] concerns the target FcRn (UniProt P55899).
For assay [3], the target named is FCGR3A (176Phe/F158) (CD16a) (UniProt P08637).
For assay [4], the target named is FCGR3A (176Val/V158) (CD16a) (UniProt P08637).
Assay [5] has as its target FCGR2A (167H) (CD32a) (UniProt P12318).
Assay [6] has as its target FCGR2A (167R) (CD32a) (UniProt P12318).
Assay [7] deals with FCGR2A (167H) (CD32a) (UniProt P12318). The source holds these as a separate data set.
The target of assay [8] is FCGR1 (CD64) (UniProt P12314). This is another data set of the same source.
Assay [9] addresses FCGR3A (176Phe/F158) (CD16a) (UniProt P08637). This is another data set of the same source.
The target in assay [10] is FCGR3A (176Val/V158) (CD16a) (UniProt P08637). The source holds these as a separate data set.
Assay [11] concerns the target FcRn (UniProt P55899). This is another data set of the same source.
In assay [12] the target is FCGR2A (167R) (CD32a) (UniProt P12318). The source holds these as a separate data set.

pIC50: −log10 of the molar value. Like-named read-outs stand apart in the source and are kept apart here.

Sequence of UniProt P55899 (P55899 24-297): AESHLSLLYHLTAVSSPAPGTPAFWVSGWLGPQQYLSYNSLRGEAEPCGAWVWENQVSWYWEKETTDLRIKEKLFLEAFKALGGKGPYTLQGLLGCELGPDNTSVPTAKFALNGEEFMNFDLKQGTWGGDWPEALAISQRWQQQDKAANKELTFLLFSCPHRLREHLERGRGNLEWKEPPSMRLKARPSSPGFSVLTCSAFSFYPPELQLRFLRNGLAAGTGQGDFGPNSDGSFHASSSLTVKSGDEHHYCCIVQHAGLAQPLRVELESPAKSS
Sequence of UniProt P12314 (P12314 16-292): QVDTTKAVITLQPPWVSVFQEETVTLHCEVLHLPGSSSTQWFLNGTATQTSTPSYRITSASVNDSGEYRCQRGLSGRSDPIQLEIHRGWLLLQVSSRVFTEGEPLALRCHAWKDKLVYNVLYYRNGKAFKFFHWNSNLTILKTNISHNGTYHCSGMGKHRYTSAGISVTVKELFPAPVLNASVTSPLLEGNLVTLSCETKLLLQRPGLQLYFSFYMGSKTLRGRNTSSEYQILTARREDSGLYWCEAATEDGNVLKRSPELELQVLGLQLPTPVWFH

A word on the pIC50: it is the IC50 on a negative log10 scale, so that one unit is a factor of ten. Read a high pIC50 as a small IC50. Take “KVA12.1 (WT, hIgG1) (from UniProt P01857)”: the pIC50 was 8.80 with FCGR1 (CD64) [1]; 8.28 with FcRn [2]; 7.27 in assay [3]; 7.02 in assay [4]; 7.54 in the assay with FCGR2A (167H) (CD32a) [5]; 7.17 in the assay with FCGR2A (167R) (CD32a) [6].
Regarding “KVA12123 (YTE, hIgG1) (from UniProt P01857)”, the negative-log IC50 (pIC50) with FCGR2A (167H) (CD32a) [7] was 6.86; with FCGR1 (CD64) [8], 8.22; in assay [9] it was 6.41; in assay [10] it was 6.30; with FcRn [11], 9.01; with FCGR2A (167R) (CD32a) [12], 6.54.

(Values after article PMC10751915.)
